Data published in paper PMC2839085.

Biological target: TmMre11 (TM1635) truncated construct, residues 1-324 (Thermotoga maritima) (UniProt Q9X1X0)
Test: crystal structure

TmMre11 (TM1635) truncated construct, residues 1-324 (from UniProt Q9X1X0 1-324) (domain or fragment)
stoichiometry N: 2
